Laboratory results as given in the supplement of paper PMC9732359.
± gives the uncertainty stated by the source.

Test: protein stability index of a GFP-peptide fusion (yeast GPS) (PSI 1-4); higher = more stable; sorted into four equal gates, so the index is relative within each strain
Outline: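 Tiled 17-residue yeast protein peptides were fused downstream of GFP in a plasmid that also expresses Cherry, and the pooled library was carried in yeast. Mid-log cultures in leucine-free medium were sorted into four equal gates by GFP/Cherry fluorescence ratio, and plasmids from each gate were PCR-amplified and Illumina-sequenced, with reads assigned to strains by barcodes. The protein stability index for each peptide was each gate's read frequency times its gate number, summed.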

Sequence	protein stability index (doa10∆)	protein stability index (pdr5∆)	protein stability index (san1∆)	protein stability index (ubr1∆)
QMTWRQWLNNALKRSYG [POP8]	2.9 ± 0.085	3.08 ± 0.14	3.56 ± 0.079	3.2 ± 0.079
EIEIEGVMSLLQKSSKS [YAR002W/NUP60]	2.99 ± 0.11	3.05 ± 0.16	3.26 ± 0.09	3.25 ± 0.072
SVLYQLSTSAFMEIVLE [YML031W/NDC1]	2.17 ± 0.047	2.07 ± 0.055	2.07 ± 0.068	2.67 ± 0.058
VRIHSIQVLTEASSLGY [IRR1]	1.49 ± 0.22	1.64 ± 0.12	–	–
LQILAMLLLNIFISSDH [YMR129W/POM152]	1.72 ± 0.058	1.36 ± 0.061	1.35 ± 0.08	1.13 ± 0.05
DILSKLYLLLARVFEIW [SNF11]	2.15 ± 0.044	2.36 ± 0.053	2.19 ± 0.07	2.39 ± 0.041
TKNIPITHRDLHYDKDY [SSN8]	2.65 ± 0.043	2.87 ± 0.041	2.87 ± 0.03	2.83 ± 0.039
PKIDEDDTWYNLTEFVQ [AAR2]	3.17 ± 0.088	3.23 ± 0.086	3.07 ± 0.049	3.07 ± 0.057
FVAKLAAQIFGSYNAFE [COR1]	1.68 ± 0.043	1.74 ± 0.048	1.63 ± 0.081	2.13 ± 0.046
NAGPNSNIPNLLRNLES [YDL088C/ASM4]	2.35 ± 0.043	1.96 ± 0.043	2.23 ± 0.073	2.46 ± 0.031
IMYQQMLKYRRLFIGDQ [SNF2]	1.45 ± 0.052	1.22 ± 0.04	1.3 ± 0.12	1.42 ± 0.03
LGEEHPLQVARCTKIIK [RPT1]	2.18 ± 0.082	2.78 ± 0.073	2.75 ± 0.082	2.39 ± 0.085
ESDGRMFIEEPTRMVRV [SRP54]	2.77 ± 0.082	2.99 ± 0.11	2.83 ± 0.099	2.73 ± 0.054
IETVMTQEQFVKRRRDM [SRB4]	2.94 ± 0.22	3.24 ± 0.12	2.92 ± 0.1	2.49 ± 0.26
DVKKPFSFGTSQPNNTP [YLR335W/NUP2]	2.61 ± 0.096	2.34 ± 0.083	2.5 ± 0.12	2.15 ± 0.064
ANFIFSPASGIVDKYIG [RPT4]	2.81 ± 0.067	2.79 ± 0.097	1.93 ± 0.12	2.42 ± 0.077
PLAPAPINLPPQIAQLP [SNF5]	1.8 ± 0.079	2.09 ± 0.064	1.88 ± 0.12	1.97 ± 0.061
MGGVSALRGMFKDRFKD [FAS2]	3.56 ± 0.068	3.55 ± 0.067	3.41 ± 0.059	3.54 ± 0.069
QQKLNTRMQRGHRADVG [REC8]	2.84 ± 0.16	2.85 ± 0.096	2.84 ± 0.15	3.3 ± 0.088
DTRITPSKVSKIDSHVV [PRE6]	2.76 ± 0.078	3.09 ± 0.064	2.46 ± 0.14	2.72 ± 0.063
